Biological target: Slack KNa channel, wildtype (Slack-B subunit), recombinantly expressed in CHO cells
Test: cell-based or functional assay

Magi-1 (Membrane-Associated Guanylate Kinase 1), recombinantly expressed in CHO cells
membrane currents of Slack-B on co-expression with Magi-1: 2 fold

Reference: patent US20250154199A1
